Source: the supplement of paper PMC11502859

Test system: HEK293T
Assay: median enrichment of reporter reads in eGFP-reduced (low/intermediate) vs eGFP-high sorted cells (eGFP-extension fusion abundance) (ratio); higher = stronger loss of eGFP-fusion protein abundance (more destabilising extension)
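Note: lentiviral eGFP-IRES-mCherry reporter pool sorted by FACS 96 h post-transduction, gated on mCherry-high cells, Illumina read counts normalized per million, median across four biological replicates.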

Row | Substance | median enrichment
1 | WFIFKGLCVTLTFPVVTCDCFVFVEEYCFYFEKRVFFLSMGLQGWCTTGPSMYSCIDFFT [CD109] | 0.738
2 | WFSPVICSINGLIINVSLRHDKHFNTQ [DNAAF1] | 13.3
3 | WFST [SEMA3D] | 2.02
4 | WFYILTS [CLHC1] | 5.45
5 | WGAAYQSLGSHLLRC [C11orf91] | 5.76
6 | WGAPQEGPVDLRRLHKKLMDHWSVPMGSIISSTLKMSKVCSFQTASPGSLGNAGKSKRISLALIT [ACSM5] | 17.8
7 | WGATSFSTTMLLHFPTPTRPPSSPPTPFSHSHPHHRSLDCWEWKPGGVMAQVL [RAMP2] | 8.95
8 | WGC [PIGN] | 0.651
9 | WGCSGNSHSAPIRAPCRGPSVVSD [TBC1D14] | 2.19
10 | WGEKPQKGKLQTSWETCAKDFAD [CXCL14] | 0.277
11 | WGEPQTLRES [C7orf61] | 0.458
12 | WGFRSAT [KIF15] | 1.06
13 | WGGLGCQCCRDPGCPGLWGRTGSPHPPTPAKGGASPESPPVRPSEPTSHPPSSQGVRAPDGPGRHPGGPATAGEGT [TMEM184A] | 2.58
14 | WGGLN [OR3A1] | 1.04
15 | WGGPNLDSFPALGHRRPGSSARQAWARRAPGRALSAAGARPRTSAGTRESLLGRSVNKPFFLLFFKNCFSH [DUOXA2] | 5.58
16 | WGGVGPGRAGVCWHRQPPLWALGGPLKGSPTRGPDESFLSGVGSQRGSPPAAWGRAWPGRVIQRVCQPLTGSPSVAATRSTEL [FAM53B] | 5.84
17 | WGHIQDNYTFAQPGIQMKVKMLEELVSRIDEQVHRHLDQHEVRYLQFAFRWMNNLLMREVPLRCTIRLWDTYQSEPDGFSHFH [TBC1D22A] | 11.6
18 | WGHQSPQWTDAFDGQDEGQGHWSEGVDKTAAI [TBC1D21] | 0.0629
19 | WGHRSEMRGLECGWAPGAMGGCGAGEIKSELLLPGVPTSSSGQSVHSQPDR [BCL2] | 5.52
20 | WGLRPHAPSHAVHPFSQVPNGPGSQDPGPSQNLCPPCP [SARDH] | 9.03

Row | Substance | median enrichment
21 | WGMFVPGKAGGEPLQHLYIQEACREELVCWPQEEWELQTRSSDSLWPESNLVSPPASLF [FGF1] | 7.24
22 | WGNKRKLSPESATSAPSIFSINALYQPQSSLFKLTPC [ZNF474] | 8.63
23 | WGPAWHPVTPPQCLSWP [CSHL1] | 7.99
24 | WGPDSELEGGEIFKEKRGKWEGCKRGE [SOX2] | 29.7
25 | WGPGAFPRSSPSSI [RNASEK] | 0.405
26 | WGPGRGPGAVGT [INSYN1] | 5.06
27 | WGPGSLHASALAPAGSKHRACPPHPEDLRAMPVPPHAGGCLGHLPAH [RHPN1] | 3.51
28 | WGPPRARRTGTELSRGRSPRQAQLV [CDS2] | 11.7
29 | WGPVHAGGLRDPHNPQTQSPRALPKPLAWLQSRLRAGATYPCAGTCSLCSVLITPP [RUSC2] | 7.23
30 | WGQCLPAPPLASSSAPRVPSVDPIRPAMASYSKMV [ACO2] | 0.96
31 | WGRDSVPLAVLPSLLVCQASPPTTPHQATPAASAFLGAERQPRPPVPSPPSHHRSSAPGRTVWPLPVPAMGSGWTPWAPPIAK [CAPN1] | 7.5
32 | WGRRCGAVNFRPQRSQSMRGGGGGRGRRAKGGGAGASNPRQ [KISS1] | 15.8
33 | WGSAQISVVRKPVPLGFSPHTTACRTLEWTQSSH [CA6] | 7.98
34 | WGSCSGGRV [ZNF330] | 0.598
35 | WGSEPRPSGFTCLVKAFVMISLN [KRTAP5-10] | 10.1
36 | WGSGFVSAAAYPCPMCPPLPVLRASGMVQALRKVRVAVWEPLCLAPGYPGPGNLRAGERWGGRHAEVLLVTGLPSLTCTYLHP [SLC36A1] | 4.72
37 | WGSVQGLSH [CST5] | 0.711
38 | WGTKPRRIPPQ [CA10] | 0.682
39 | WGWGWTNNQARAEGFMERPLGDPR [S1PR2] | 3.36
40 | WGWKGPEG [SLC35B2] | 1.98

Row | Substance | median enrichment
41 | WGWRQLSSRSLGFAALAAVTRNCPGLGGELGGP [ACP7] | 8.55
42 | WGWTPVPAGRSPDMWTCSFVPTVHAGLRLEPRGAGQFTGSCRTRCQPLRGGTADARGFAHPGPSVPRAK [ITPKA] | 6.95
43 | WGYWPTLWAPCSA [EFCC1] | 7.99
44 | WHHLIDYGTRKSEGFHIR [PLPP6] | 7.61
45 | WHLFPPCLPLPLFWGHPFPPWLSPLKVSPPLGAFLEPCVSEWSPHSIVPRVCPQTLHLALLGRN [SNRPA] | 10.5
46 | WHLTNHSTEHTFIFVSAFVLKLSKYIHLCNRNL [ADGRV1] | 13.2
47 | WHPCTQEDSAFTKHFHCLAKV [GPR12] | 11.3
48 | WHRRTPGDFLYICRLRLFVTSKWDIV [TAF4] | 5.8
49 | WIEKI [GTF2A2] | 1.64
50 | WILAELLCT [COPS4] | 5.2
51 | WIPQGTTEAKELEVFSRGTDGLRALMMLPEVCKSFMS [LOR] | 10.9
52 | WKDN [PIK3CA] | 0.482
53 | WKGRAQQCK [IRX2] | 0.459
54 | WKHFLPKVSGLRYTSIQQCIVIKILFQS [OR2L3] | 7.3
55 | WKK [JAK2] | 0.476
56 | WKLRF [TRMT11] | 1.93
57 | WKLYMLRDVLLSGSIELPLSVNFKV [PDCD10] | 11
58 | WKMKIP [N4BP2L2] | 1.67
59 | WKRD [RER1] | 0.349
